Test results from US20190083587A1 (Novo Nordisk, published 2019).

T1: human TLT-1 on activated platelets (human, UniProt Q86YW5 16-311)
T1 sequence: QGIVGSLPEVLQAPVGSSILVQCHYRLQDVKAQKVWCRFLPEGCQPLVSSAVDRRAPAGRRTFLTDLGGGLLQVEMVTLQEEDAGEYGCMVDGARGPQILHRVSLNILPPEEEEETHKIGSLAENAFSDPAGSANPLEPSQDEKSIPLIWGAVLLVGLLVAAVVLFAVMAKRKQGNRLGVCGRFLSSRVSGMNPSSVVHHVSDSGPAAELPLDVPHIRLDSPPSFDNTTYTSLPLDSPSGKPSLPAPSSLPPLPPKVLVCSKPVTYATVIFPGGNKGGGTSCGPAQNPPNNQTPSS


Molecular target: T1, human TLT-1 on activated platelets
Assay: cell-based or functional assay

Binder | peak thrombin generation at 25 nM, haemophilia A like platelet rich plasma
FVIIa-Fab1001 (other, linker attached as sialic acid derivative to an N-linked glycan (ST3Gal-III); gamma-carboxylated Glu in the Gla domain; unpaired hinge Cys (YGPPC) coupled by maleimide to the 3 kDa PEG linker) heavy: EVKLLESGGGLVQPGGSLKLSCAASGFDFSRYWMTWVRQAPGKGLEWIGEINPDSSTINYNPSLKDKFIISRDNAKNTLYLQMSEVRSEDTALYYCASGVFTSWGQGTLVTVSAASTKGPSVFPLAPCSRSTSESTAALGCLVKDYFPEPVTVSWNSGALTSGVHTFPAVLQSSGLYSLSSVVTVPSSSLGTKTYTCNVDHKPSNTKVDKRVESKYGPPC light: DVVMTQTPLSLPVSLGDQASISCRSSQSLVHRNGNTYFHWALQKPGQSPKLLIYKVSNRFSGVPDRFSGSGSGTDFTLKISRVEAEDLGVYFCSQSTHVPYTFGGGTKLEIKRTVAAPSVFIFPPSDEQLKSGTASVVCLLNNFYPREAKVQWKVDNALQSGNSQESVTEQDSKDSTYSLSSTLTLSKADYEKHKVYACEVTHQGLSSPVTKSFNRGECEDQVDPRLIDGK ANAFLEELRPGSLERECKEEQCSFEEAREIFKDAERTKLFWISYSDGDQCASSPCQNGGSCKDQLQSYICFCLPAFEGRNCETHKDDQLICVNENGGCEQYCSDHTGTKRSCRCHEGYSLLADGVSCTPTVEYPCGKIPILEKRNASKPQGRIVGGKVCPKGECPWQVLLLVNGAQLCGGTLINTIWVVSAAHCFDKIKNWRNLIAVLGEHDLSEHDGDEQSRRVAQVIIPSTYVPGTTNHDIALLRLHQPVVLTDHVVPLCLPERTFSERTLAFVRFSLVSGWGQLLDRGATALELMVLNVPRLMTQDCLQQSRKVGDSPNITEYMFCAGYSDGSKDSCKGDSGGPHATHYRGTWYLTGIVSWGQGCATVGHFGVYTRVSQYIEWLQKLMRSEPRPGVLLRAPFP | ~4 fold compared to rFVIIa (25 nM)
FVIIa-Fab1029 (other, linker attached as sialic acid derivative to an N-linked glycan (ST3Gal-III); gamma-carboxylated Glu in the Gla domain; unpaired hinge Cys (YGPPC) coupled by maleimide to the 10 kDa PEG linker) heavy: EVKLLESGGGLVQPGGSLKLSCAASGFDFSRYWMTWVRQAPGKGLEWIGEINPDSSTINYNPSLKDKFIISRDNAKNTLYLQMSEVRSEDTALYYCASGVFTSWGQGTLVTVSAASTKGPSVFPLAPCSRSTSESTAALGCLVKDYFPEPVTVSWNSGALTSGVHTFPAVLQSSGLYSLSSVVTVPSSSLGTKTYTCNVDHKPSNTKVDKRVESKYGPPC light: DVVMTQTPLSLPVSLGDQASISCRSSQSLVHRNGNTYFHWALQKPGQSPKLLIYKVSNRFSGVPDRFSGSGSGTDFTLKISRVEAEDLGVYFCSQSTHVPYTFGGGTKLEIKRTVAAPSVFIFPPSDEQLKSGTASVVCLLNNFYPREAKVQWKVDNALQSGNSQESVTEQDSKDSTYSLSSTLTLSKADYEKHKVYACEVTHQGLSSPVTKSFNRGECEDQVDPRLIDGK ANAFLEELRPGSLERECKEEQCSFEEAREIFKDAERTKLFWISYSDGDQCASSPCQNGGSCKDQLQSYICFCLPAFEGRNCETHKDDQLICVNENGGCEQYCSDHTGTKRSCRCHEGYSLLADGVSCTPTVEYPCGKIPILEKRNASKPQGRIVGGKVCPKGECPWQVLLLVNGAQLCGGTLINTIWVVSAAHCFDKIKNWRNLIAVLGEHDLSEHDGDEQSRRVAQVIIPSTYVPGTTNHDIALLRLHQPVVLTDHVVPLCLPERTFSERTLAFVRFSLVSGWGQLLDRGATALELMVLNVPRLMTQDCLQQSRKVGDSPNITEYMFCAGYSDGSKDSCKGDSGGPHATHYRGTWYLTGIVSWGQGCATVGHFGVYTRVSQYIEWLQKLMRSEPRPGVLLRAPFP | ~2 fold compared to rFVIIa (25 nM)
